Measured values as given in patent US20180319842A1 (TUFTS MEDICAL CENTER, published 2018).
Groups on a side chain read outwards from the residue. No end group written: not given here. *: point of attachment. PEG8 = NCCOCCOCCOCCOCCOCCOCCOCCOCCC(=O)O; Palmitoyl = CCCCCCCCCCCCCCCC(=O)*

Assays:
Assay in all cases: cell-based or functional assay
MrgprX1 R131S variant = MrgprX1 R131S variant (human, UniProt Q96LB2 1-322)
MrgprX1 F273L variant = MrgprX1 F273L variant (human, UniProt Q96LB2 1-322)
MrgprX1 R55L variant = MrgprX1 R55L variant (human, UniProt Q96LB2 1-322)
Chain of MrgprX1 R55L variant (Q96LB2 whole entry R55L): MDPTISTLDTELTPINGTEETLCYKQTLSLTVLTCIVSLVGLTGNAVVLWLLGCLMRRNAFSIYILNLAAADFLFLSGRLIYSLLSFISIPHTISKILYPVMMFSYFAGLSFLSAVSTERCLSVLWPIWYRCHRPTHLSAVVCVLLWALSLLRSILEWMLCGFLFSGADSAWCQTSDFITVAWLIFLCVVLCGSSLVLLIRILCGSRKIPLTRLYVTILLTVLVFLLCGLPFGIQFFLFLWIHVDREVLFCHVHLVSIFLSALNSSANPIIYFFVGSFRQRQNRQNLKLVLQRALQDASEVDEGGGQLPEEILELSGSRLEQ

MrgprX1 H133R variant = MrgprX1 H133R variant (human, UniProt Q96LB2 1-322)
Chain of MrgprX1 H133R variant (Q96LB2 whole entry H133R): as the sequence (Q96LB2 whole entry R55L) above, with L55R, H133R counted along it

MrgprX1 I36V variant = MrgprX1 I36V variant (human, UniProt Q96LB2 1-322)
Chain of MrgprX1 I36V variant (Q96LB2 whole entry I36V): as the sequence (Q96LB2 whole entry R55L) above, with I36V, L55R counted along it

MrgprX1 H137R variant = MrgprX1 H137R variant (human, UniProt Q96LB2 1-322)
Chain of MrgprX1 H137R variant (Q96LB2 whole entry H137R): as the sequence (Q96LB2 whole entry R55L) above, with L55R, H137R counted along it

MrgprX1 A46T variant = MrgprX1 A46T variant (human, UniProt Q96LB2 1-322)
Chain of MrgprX1 A46T variant (Q96LB2 whole entry A46T): as the sequence (Q96LB2 whole entry R55L) above, with A46T, L55R counted along it

[1] = molecular target: T1, Mas-related G protein-coupled receptor X1 (MrgprX1), wild type (human, UniProt Q96LB2 1-322)
T1 sequence (Q96LB2 whole entry): as the sequence (Q96LB2 whole entry R55L) above, with L55R counted along it

[2] = molecular target: T1, Mas-related G protein-coupled receptor …; remark: listed apart in the source

Chain of MrgprX1 F273L variant (Q96LB2 whole entry F273L): as the sequence (Q96LB2 whole entry R55L) above, with L55R, F273L counted along it
Chain of MrgprX1 R131S variant (Q96LB2 whole entry R131S): as the sequence (Q96LB2 whole entry R55L) above, with L55R, R131S counted along it

## VGRPEWWMDYQKRYGGGK([PEG8-Palmitoyl]) [Lipidated BAM8-22]
MrgprX1 R131S variant
  Curve Maximum, SRE-luciferase reporter, HEK293 cells: 40.4 % of WT signal at 10^-6 M lipidated BAM8-22
  EC50 (nM), SRE-luciferase reporter, HEK293 cells: 57.1 nM
  pEC50, SRE-luciferase reporter, HEK293 cells: 7.24
MrgprX1 F273L variant
  Curve Maximum, SRE-luciferase reporter, HEK293 cells: 95.9 % of WT signal at 10^-6 M lipidated BAM8-22
  EC50 (nM), SRE-luciferase reporter, HEK293 cells: 12.1 nM
  pEC50, SRE-luciferase reporter, HEK293 cells: 7.92
MrgprX1 R55L variant
  Curve Maximum, SRE-luciferase reporter, HEK293 cells: 108 % of WT signal at 10^-6 M lipidated BAM8-22
  EC50 (nM), SRE-luciferase reporter, HEK293 cells: 10.2 nM
  pEC50, SRE-luciferase reporter, HEK293 cells: 7.99
MrgprX1 H133R variant
  Curve Maximum, SRE-luciferase reporter, HEK293 cells: 110 % of WT signal at 10^-6 M lipidated BAM8-22
  EC50 (nM), SRE-luciferase reporter, HEK293 cells: 8.6 nM
  pEC50, SRE-luciferase reporter, HEK293 cells: 8.06
MrgprX1 I36V variant
  Curve Maximum, SRE-luciferase reporter, HEK293 cells: 109 % of WT signal at 10^-6 M lipidated BAM8-22
  EC50 (nM), SRE-luciferase reporter, HEK293 cells: 9.3 nM
  pEC50, SRE-luciferase reporter, HEK293 cells: 8.03
MrgprX1 H137R variant
  Curve Maximum, SRE-luciferase reporter, HEK293 cells: 109 % of WT signal at 10^-6 M lipidated BAM8-22
  EC50 (nM), SRE-luciferase reporter, HEK293 cells: 7.9 nM
  pEC50, SRE-luciferase reporter, HEK293 cells: 8.1
MrgprX1 A46T variant
  Curve Maximum, SRE-luciferase reporter, HEK293 cells: 112 % of WT signal at 10^-6 M lipidated BAM8-22
  EC50 (nM), SRE-luciferase reporter, HEK293 cells: 9.5 nM
  pEC50, SRE-luciferase reporter, HEK293 cells: 8.02
[1]
  Curve Maximum, SRE-luciferase reporter, HEK293 cells: 101 % of WT signal at 10^-6 M lipidated BAM8-22
  EC50 (nM), SRE-luciferase reporter, HEK293 cells: 12 nM
  pEC50, SRE-luciferase reporter, HEK293 cells: 7.92
[2]
  potency relative to soluble BAM8-22, SRE-luciferase reporter, HEK293 cells: ~100 fold higher potency than soluble BAM8-22
